Assay results reported in paper PMC6554336, “C3-Glomerulopathy Autoantibodies Mediate Distinct Effects on Complement C3- and C5-Convertases” (Frontiers in Immunology, 2019).

Biological target: T1, C3b (UniProt P01024 23-667; P01024 749-1663)
T1 construct: Coated on the microtiter plate at 5 ug/ml; source: bought: CompTech
Test: ELISA; C3-convertase assembled on coated C3b in the presence of patient IgGs for 45 min, then Factor H (20 ug/ml) added, 37°C; convertase-bound Bb detected at 15, 30 or 45 min with Factor B polyclonal antiserum, OD 450 nm
Conditions: both partners purified

T1 sequence (P01024 23-667, chain 1 of 2): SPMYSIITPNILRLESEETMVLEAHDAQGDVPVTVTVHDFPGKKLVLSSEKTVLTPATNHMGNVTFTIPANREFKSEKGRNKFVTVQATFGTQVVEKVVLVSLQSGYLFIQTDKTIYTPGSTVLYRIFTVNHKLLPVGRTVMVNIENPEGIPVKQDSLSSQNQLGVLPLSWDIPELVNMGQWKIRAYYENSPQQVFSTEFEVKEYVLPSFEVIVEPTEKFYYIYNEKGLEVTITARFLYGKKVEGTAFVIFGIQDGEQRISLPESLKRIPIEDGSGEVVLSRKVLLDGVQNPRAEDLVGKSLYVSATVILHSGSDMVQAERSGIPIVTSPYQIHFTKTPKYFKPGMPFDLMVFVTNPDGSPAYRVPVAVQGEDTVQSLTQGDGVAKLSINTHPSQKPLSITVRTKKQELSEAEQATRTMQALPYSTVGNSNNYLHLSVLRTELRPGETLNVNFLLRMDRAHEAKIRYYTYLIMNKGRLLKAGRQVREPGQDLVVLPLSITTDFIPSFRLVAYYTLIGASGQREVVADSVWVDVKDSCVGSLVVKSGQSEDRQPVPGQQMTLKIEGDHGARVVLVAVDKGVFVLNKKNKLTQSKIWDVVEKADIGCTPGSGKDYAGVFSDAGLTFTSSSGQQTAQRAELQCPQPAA
T1 sequence (P01024 749-1663, chain 2 of 2): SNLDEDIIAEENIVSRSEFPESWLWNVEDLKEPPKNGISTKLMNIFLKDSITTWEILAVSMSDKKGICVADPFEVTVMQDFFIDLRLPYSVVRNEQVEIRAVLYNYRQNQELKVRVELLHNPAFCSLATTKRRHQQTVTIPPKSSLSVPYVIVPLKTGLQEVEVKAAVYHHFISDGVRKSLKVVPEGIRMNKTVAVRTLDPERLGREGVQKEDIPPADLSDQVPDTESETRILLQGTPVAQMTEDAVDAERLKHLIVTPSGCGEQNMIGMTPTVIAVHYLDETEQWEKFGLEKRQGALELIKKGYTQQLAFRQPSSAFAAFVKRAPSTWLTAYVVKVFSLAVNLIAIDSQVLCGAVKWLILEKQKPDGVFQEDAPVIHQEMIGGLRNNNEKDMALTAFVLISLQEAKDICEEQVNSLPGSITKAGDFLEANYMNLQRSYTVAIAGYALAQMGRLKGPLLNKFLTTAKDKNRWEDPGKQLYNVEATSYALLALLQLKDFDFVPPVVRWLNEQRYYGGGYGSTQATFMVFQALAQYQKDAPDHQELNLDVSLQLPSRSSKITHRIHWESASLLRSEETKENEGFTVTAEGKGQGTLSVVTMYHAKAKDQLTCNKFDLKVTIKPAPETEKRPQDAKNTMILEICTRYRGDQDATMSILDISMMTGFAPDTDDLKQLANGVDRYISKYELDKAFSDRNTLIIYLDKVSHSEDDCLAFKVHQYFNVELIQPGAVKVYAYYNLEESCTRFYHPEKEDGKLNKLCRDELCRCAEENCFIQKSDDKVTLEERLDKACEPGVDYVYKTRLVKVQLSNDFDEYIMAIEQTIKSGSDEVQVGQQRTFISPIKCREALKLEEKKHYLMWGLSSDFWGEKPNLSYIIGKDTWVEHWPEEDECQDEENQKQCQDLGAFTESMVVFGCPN

binding result: binds
B1: Factor H (natural protein, UniProt P08603 19-1231, looked up)
chain: EDCNELPPRRNTEILTGSWSDQTYPEGTQAIYKCRPGYRSLGNVIMVCRKGEWVALNPLRKCQKRPCGHPGDTPFGTFTLTGGNVFEYGVKAVYTCNEGYQLLGEINYRECDTDGWTNDIPICEVVKCLPVTAPENGKIVSSAMEPDREYHFGQAVRFVCNSGYKIEGDEEMHCSDDGFWSKEKPKCVEISCKSPDVINGSPISQKIIYKENERFQYKCNMGYEYSERGDAVCTESGWRPLPSCEEKSCDNPYIPNGDYSPLRIKHRTGDEITYQCRNGFYPATRGNTAKCTSTGWIPAPRCTLKPCDYPDIKHGGLYHENMRRPYFPVAVGKYYSYYCDEHFETPSGSYWDHIHCTQDGWSPAVPCLRKCYFPYLENGYNQNYGRKFVQGKSIDVACHPGYALPKAQTTVTCMENGWSPTPRCIRVKTCSKSSIDIENGFISESQYTYALKEKAKYQCKLGYVTADGETSGSITCGKDGWSAQPTCIKSCDIPVFMNARTKNDFTWFKLNDTLDYECHDGYESNTGSTTGSIVCGYNGWSDLPICYERECELPKIDVHLVPDRKKDQYKVGEVLKFSCKPGFTIVGPNSVQCYHFGLSPDLPICKEQVQSCGPPPELLNGNVKEKTKEEYGHSEVVEYYCNPRFLMKGPNKIQCVDGEWTTLPVCIVEESTCGDIPELEHGWAQLSSPPYYYGDSVEFNCSESFTMIGHRSITCIHGVWTQLPQCVAIDKLKKCKSSNLIILEEHLKNKKEFDHNSNIRYRCRGKEGWIHTVCINGRWDPEVNCSMAQIQLCPPPPQIPNSHNMTTTLNYRDGEKVSVLCQENYLIQEGEEITCKDGRWQSIPLCVEKIPCSQPPQIEHGTINSSRSSQESYAHGTKLSYTCEGGFRISEENETTCYMGKWSSPPQCEGLPCKSPPEISHGVVAHMSDSYQYGEEVTYKCFEGFGIDGPAIAKCLGEKWSHPPSCIKTDCLSLPSFENAIPMGEKKDVYKAGEQVTYTCATYYKMDGASNVTCINSRWTGRPTCRDTSCVNPPTVQNAYIVSRQMSKYPSGERVRYQCRSPYEMFGDEEVMCLNGNWTEPPQCKDSTGKCGPPPPIDNGDITSFPLSVYAPASSVEYQCQNLYQLEGNKRITCRNGQWSEPPKCLHPCVISREIMENYNIALRWTAKQKLYSRTGESVEFVCKRGYRLSSRSHTLRTTCWDGKLEYPTCAKR
notes: complement Factor H; Used at 20 ug/ml; source: bought: CompTech
